Experiments:
[1] = substrate: C/C=C/CO; experiment: Kinetic parameters of crotyl alcohol phosphorylation (pyruvate kinase/lactate dehydrogenase coupled spectrophotometric assay); assay type: biochemical, Escherichia coli; conditions: other: crotyl alcohol phosphorylation, pH 7.5, 37° C., 5 mM ATP
Method: (§1) The release of ADP that is associated with crotyl alcohol phosphorylation was quantified using the pyruvate kinase/lactate dehydrogenase coupled assay (FIG. 5). The purified 4-methyl-5-(2-hydroxyethyl)thiazole kinases from Escherichia coli (SEQ ID NO:2), Bacillus subtilis (SEQ ID NO:1), Rhizobium leguminosarum (SEQ ID NO:3) were evaluated for their ability to phosphorylate crotyl alcohol releasing ADP. The studied enzymatic reaction was carried out under the following conditions at 37° C.: • 50 mM Tris-HCl pH 7.5 • 10 mM MgCl2 • 100 mM KCl • 5 mM ATP • 0.4 mM NADH • 1 mM Phosphoenolpyruvate • 3 U/ml Lactate dehydrogenase • 1.5 U/ml Pyruvate kinase • 50 mM crotyl alcohol, mixture cis and trans • The pH was adjusted to 7.5
(§2) Each assay was started by addition of a particular enzyme at a concentration 0.05 mg/ml and the disappearance of NADH was monitored by following the absorbance at 340 nm.
(§3) Kinetic parameters of crotyl alcohol phosphorylation were determined using the spectrophotometric assay described in Example 2.

[2] = substrate: C/C=C\CO; experiment: as above; assay type: biochemical, Escherichia coli; conditions: other: crotyl alcohol phosphorylation, pH 7.5, 37° C., 5 mM ATP
Method: as §1, §2, §3

[3] = substrate: C/C=C/COP(=O)(O)O; experiment: Kinetic parameters of the crotyl monophosphate phosphorylation reaction (pyruvate kinase/lactate dehydrogenase coupled spectrophotometric assay); assay type: biochemical, Methanothermobacter thermautotrophicus; conditions: other: trans crotyl monophosphate as a substrate; assay of Example 2; pH 7.5; 37.0 °C
Method: as §1, §2
(§4) Sequences of isopentenyl monophosphate kinases inferred from the genomes of several members of the Archaea, in particular Methanothermobacter (SEQ ID NO:5), Methanocaldococcus (SEQ ID NO:6) and Thermoplasma (SEQ ID NO:4) genus, are generated by oligonucleotide concatenation to fit the codon usage of E. coli. […] The genes thus synthesized are cloned in a pET25b expression vector and the proteins are produced according to the protocol described in Example 1. The enzymes are then assayed using the method described in Example 2 with crotyl monophosphate concentrations varying from 0 to 50 mM. The release of ADP that is associated with crotyl monophosphate phosphorylation is quantified using the pyruvate kinase/lactate dehydrogenase coupled assay. Each assay is started by addition of particular enzyme (at a final concentration from 0.05 mg/ml to 1 mg/ml) and the disappearance of NADH is monitored by following the absorbance at 340 nm.
(§5) Cis crotyl monophosphate and trans crotyl monophosphate were synthesized upon request by a company specialized in custom synthesis (Syntheval, France). Kinetic parameters for the phosphorylation of these substrates were determined using the spectrophotometric assay described in Example 2. Kinetic parameters obtained with purified isopentenyl monophosphate kinases from different members of the Archaea kingdom are presented in Table 3 (cis crotyl monophosphate as a substrate) and Table 4 (trans crotyl monophosphate as a substrate).

[4] = substrate: C/C=C\COP(=O)(O)O; experiment: as above; assay type: biochemical, Methanothermobacter thermautotrophicus; conditions: other: cis crotyl monophosphate as a substrate; assay of Example 2; pH 7.5; 37.0 °C
Method: as §1, §2, §4, §5

[5] = substrate: C/C=C/COP(=O)(O)O; experiment: as above; assay type: biochemical, Methanocaldococcus jannaschii; conditions: other: trans crotyl monophosphate as a substrate; assay of Example 2; pH 7.5; 37.0 °C
Method: as §1, §2, §4, §5

[6] = substrate: C/C=C\COP(=O)(O)O; experiment: as above; assay type: biochemical, Methanocaldococcus jannaschii; conditions: other: cis crotyl monophosphate as a substrate; assay of Example 2; pH 7.5; 37.0 °C
Method: as §1, §2, §4, §5

[7] = substrate: C/C=C/COP(=O)(O)O; experiment: Kinetic parameters of enzyme catalyzed production of 1,3-butadiene from trans crotyl monophosphate (GC/FID); assay type: biochemical, Eucalyptus globulus; conditions: other: 0-25 mM trans crotyl monophosphate, pH 7.5, 37° C., 20 mM MgCl2, 20 mM KCl, 0.5-4 h
Method: (§6) One ml of the gaseous phase was then collected and directly injected into a Varian GC-430 gas chromatograph equipped with a flame ionization detector (FID). Nitrogen was used as carrier gas with a flow rate of 1.5 ml/min. Volatile compounds were chromatographically separated on RT-Alumina Bond/Na2SO4 column (Restek) using an isothermal mode at 130° C. The enzymatic reaction product was identified by direct comparison with 1,3-butadiene standard (Sigma).
The kinetic parameters of enzyme catalyzed production of 1,3-butadiene from trans crotyl monophosphate were measured under the following conditions: • 50 mM Tris-HCl pH 7.5 • 20 mM MgCl2 • 20 mM KCl • 2 mM DTT • 0-25 mM trans crotyl monophosphate
(§7) The reaction was initiated by addition of 0.25 mg of purified monoterpene synthase from Eucalyptus globulus to 0.5 ml of reaction mixture. An enzyme-free control reaction was carried out in parallel. Assays were incubated at 37° C. for 0.5-4 h in a sealed vial of 1.5 ml (Interchim) with shaking.
(§8) 1,3-butadiene production was analyzed using the GC/FID procedure described in Example 12.

[8] = substrate: C/C=C/COP(=O)(O)OP(=O)(O)O; experiment: Kinetic parameters of enzyme catalyzed production of 1,3-butadiene from trans crotyl diphosphate (GC/FID); assay type: biochemical, Eucalyptus globulus; conditions: other: 0-25 mM trans crotyl diphosphate, pH 7.5, 37° C., 20 mM MgCl2, 20 mM KCl, 0.5-4 h
Method: as §6
The kinetic parameters of enzyme catalyzed production of 1,3-butadiene from trans crotyl […] were measured under the following conditions: • 50 mM Tris-HCl pH 7.5 • 20 mM MgCl2 • 20 mM KCl • 2 mM DTT • 0-25 mM trans crotyl diphosphate
as §7, §8

[9] = substrate: NC(=O)C1=CN([C@@H]2O[C@H](COP(=O)(O)OP(=O)(O)OC[C@H]3O[C@@H](n4cnc5c(N)ncnc54)[C@H](OP(=O)(O)O)[C@@H]3O)[C@@H](O)[C@H]2O)C=CC1; experiment: purified protein, by the assay type; conditions: other: crotonyl-CoA fixed at 5 mM, NADPH 0 to 0.8 mM, pH 7.5, 37° C.
[10] = substrate: C/C=C/C(=O)SCCNC(=O)CCNC(=O)[C@H](O)C(C)(C)COP(=O)(O)OP(=O)(O)OC[C@H]1O[C@@H](n2cnc3c(N)ncnc32)[C@H](O)[C@@H]1OP(=O)(O)O; experiment: Kinetic parameters towards crotonyl-CoA, overall reaction (crotyl alcohol quantification by HPLC); assay type: biochemical, Hahella chejuensis; conditions: other: NADPH fixed at 80 mM, crotonyl-CoA 0 to 32 mM, pH 7.5, 37° C.
Method: The reactions were initiated by addition of 150 μg of purified dehydrogenase/reductase to 150 μl of reaction mixture. Assays were incubated at 37° C. for 0.5-6 h. The reactions were stopped by heating at 65° C. for 5 minutes, reaction mixtures were centrifuged and 120 μl of the clarified supernatant were transferred into a clean vial. The reaction products were then extracted with an equal volume of ethyl acetate. 100 μl of the upper ethyl acetate phase was transferred into a clean vial for HPLC analysis. Commercial crotonaldehyde and crotyl alcohol were used as reference. HPLC-UV analysis was performed using a 1260 Inifinity LC System (Agilent). 10 μl of samples were separated on Zorbax SB-Aq column (250×4.6 mm, 3.5 μm particle size) with a mobile phase flow rate of 1.5 ml/min. The mobile phase consisted of 95:5 (v/v) H2O/Acetonitrile containing 8.4 mM sulfuric acid.
Kinetic parameters for the overall reaction were determined by crotyl alcohol quantification using HPLC procedure described in Example 17.

[11] = substrate: C/C=C/COP(=O)(O)O; experiment: Kinetic parameters of the crotyl monophosphate phosphorylation reaction (pyruvate kinase/lactate dehydrogenase coupled spectrophotometric assay); assay type: biochemical, Thermoplasma acidophilum; conditions: other: trans crotyl monophosphate as a substrate; assay of Example 2; pH 7.5; 37.0 °C
Method: as §1, §2, §4, §5

[12] = substrate: C/C=C\COP(=O)(O)O; experiment: as above; assay type: biochemical, Thermoplasma acidophilum; conditions: other: cis crotyl monophosphate as a substrate; assay of Example 2; pH 7.5; 37.0 °C
Method: as §1, §2, §4, §5

B1: 4-methyl-5-(2-hydroxyethyl)thiazole kinase (hydroxyethylthiazole kinase, EC 2.7.1.50) from Escherichia coli, SEQ ID NO:2 (Escherichia coli K-12) (protein)
chain: MQVDLLGSAQSAHALHLFHQHSPLVHCMTNDVVQTFTANTLLALGASPAMVIETEEASQFAAIASALLINVGTLTQPRAQAMRAAVEQAKSSQTPWTLDPVAVGALDYRRHFCHELLSFKPAAIRGNASEIMALAGIANGGRGVDTTDAAANAIPAAQTLARETGAIVVVTGEMDYVTDGHRIIGIHGGDPLMTKVVGTGCALSAVVAACCALPGDTLENVASACHWMKQAGERAVARSEGPGSFVPHFLDALWQLTQEVQA
Km [1]: 30000 µM | kcat [1]: 0.11 s⁻¹ | Km [2]: 13600 µM | kcat [2]: 0.19 s⁻¹

B2: isopentenyl monophosphate kinase from Methanothermobacter thermautotrophicus, SEQ ID NO:5 (Methanothermobacter thermautotrophicus str. Delta H) (protein)
chain: MIILKLGGSVITRKDSEEPAIDRDNLERIASEIGNASPSSLMIVHGAGSFGHPFAGEYRIGSEIENEEDLRRRRFGFALTQNWVKKLNSHVCDALLAEGIPAVSMQPSAFIRAHAGRISHADISLIRSYLEEGMVPVVYGDVVLDSDRRLKFSVISGDQLINHFSLRLMPERVILGTDVDGVYTRNPKKHPDARLLDVIGSLDDLESLDGTLNTDVTGGMVGKIRELLLLAEKGVESEIINAAVPGNIERALLGEEVRGTRITGKH
Km [3]: 450 µM | kcat [3]: 8.7 s⁻¹ | Km [4]: 940 µM | kcat [4]: 5.7 s⁻¹

B3: isopentenyl monophosphate kinase from Methanocaldococcus jannaschii, SEQ ID NO:6 (Methanocaldococcus jannaschii DSM 2661) (protein)
chain: MLTILKLGGSILSDKNVPYSIKWDNLERIAMEIKNALDYYKNQNKEIKLILVHGGGAFGHPVAKKYLKIEDGKKIFINMEKGFWEIQRAMRRFNNIIIDTLQSYDIPAVSIQPSSFVVFGDKLIFDTSAIKEMLKRNLVPVIHGDIVIDDKNGYRIISGDDIVPYLANELKADLILYATDVDGVLIDNKPIKRIDKNNIYKILNYLSGSNSIDVTGGMKYKIDMIRKNKCRGFVFNGNKANNIYKALLGEVEGTEIDFSE
Km [5]: 490 µM | kcat [5]: 3 s⁻¹ | Km [6]: 200 µM | kcat [6]: 3.4 s⁻¹

B4: monoterpene synthase from Eucalyptus globulus, SEQ ID NO: 8 (Eucalyptus globulus) (protein)
chain: MALRLLFTPHLPVLSSRRANGRVRCSASTQISDPQEGRRSANYQPSVWTYNYLQSIVAGEGRQSRREVEQQKEKVQILEEEVRGALNDEKAETFTIFATVDDIQRLGLGDHFEEDISNALRRCVSKGAVFMSLQKSLHGTALGFRLLRQHGYEVSQDVFKIFLDESGSFVKTLGGDVQGVLSLYEASHLAFEEEDILHKARSFAIKHLENLNSDVDKDLQDQVKHELELPLHRRMPLLEARRSIEAYSRREYTNPQILELALTDFNVSQSTLQRDLQEMLGWWNNTGLAKRLSFARDRLIECFFWAVGIAHEPSLSICRKAVTKAFALILVLDDVYDVFGTLEELELFTEAVRRWDLNAVEDLPVYMKLCYLALYNSVNEMAYETLKEKGENVIPYLAKAWYDLCKAFLQEAKWSNSRIIPGVEEYLNNGWVSSSGSVMLIHAYFLASPSIRKEELESLEHYHDLLRLPSLIFRLTNDIASSSAELERGETTNSIRCFMQEKGISELEARECVKEEIDTAWKKMNKYMVDRSTFNQSFVRMTYNLARMAHCVYQDGDAIGSPDDLSWNRVHSLIIKPISPAA
Km [7]: 6000 µM | Km [8]: 7000 µM | kcat [8]: 3e-05 s⁻¹

B5: short chain alcohol dehydrogenase-like protein from Hahella chejuensis, SEQ ID NO: 17 (Hahella chejuensis KCTC 2396) (protein)
chain: MNYFVTGGTGFIGRFLVPKLLKRGGTVYLLVREASLPKLDELRERWNASDEQVVGVVGDLAQPMLGVSEKDAAMLRGKVGHFFHLAAIYDMQASAESQEQANIEGTRNAVKLADSLKAACFHHVSSIAAAGLYRGIFREDMFEEAEKLDNPYLRTKHESEKVVREECQTPWRVYRPGMVVGHSKTGEIDKIDGPYYFFKLIQKLRSALPQWMPTVGLEGGRINIVPVDFVVDAMDHIAHAEGEDGKCFHLTDPDPYKVGEILNIFAEAGHAPKMAMRIDARMFGFIPPMIRQGIARLPPVQRMKNAVLNDLGIPDEVMSFINYPTRFDNRETERLLKGTAIAVPRLQDYSPAIWDYWERHLDPDLHKDRTLRGAVEGRVCVITGATSGIGLSAARKLAEAGAKVVIAARTLEKLQEVKKELEELGGEVYEYSVDLSDLEDCDRFVANVLKDLGHVDVLVNNAGRSIRRSIQHAFDRFHDFERTMQLNYFGSLRLIMGFAPSMLERRRGHIVNISSIGVLTNAPRFSAYVASKAALDAFSRCAAAEFSDKNVTFTTINMPLVRTPMISPTKIYDSVPTLTPEEAADLVAEAIIHRPKRIATRLGVFAQVLHSMAPKFSEIIMNTGFKMFPDSSAATGGKDGEKPKVSTEQVAFAAIMRGIHW
Km [9]: 1000 µM | kcat [9]: 6.0 s⁻¹ | Km [10]: 5000 µM | kcat [10]: 0.05 s⁻¹

B6: isopentenyl monophosphate kinase from Thermoplasma acidophilum, SEQ ID NO:4 (Thermoplasma acidophilum DSM 1728) (protein)
chain: MMILKIGGSVITDKSAYRTARTYAIRSIVKVLSGIEDLVCVVHGGGSFGHIKAMEFGLPGPKNPRSSIGYSIVHRDMENLDLMVIDAMIEMGMRPISVPISALRYDGRFDYTPLIRYIDAGFVPVSYGDVYIKDEHSYGIYSGDDIMADMAELLKPDVAVFLTDVDGIYSKDPKRNPDAVLLRDIDTNITFDRVQNDVTGGIGKKFESMVKMKSSVKNGVYLINGNHPERIGDIGKESFIGTVIR
Km [11]: 1000 µM | kcat [11]: 2.2 s⁻¹ | Km [12]: 610 µM | kcat [12]: 1.8 s⁻¹
